Data as given in the supplement of paper PMC10567573.

B1: PDZK1 (parent)
chain: QKEQGLSDNILSPVMNGGVQTWTQ
B2: IQUB (parent)
chain: EADYEDDSKIAFLMQLQDIQYLTE
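Also: lentivirally expressed fusions sorted by FACS into six bins by GFP to DsRed ratio, PSI derived from sequencing read proportions per bin multiplied by bin number.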

Variants of: B1
Experiment: protein stability index of a GFP-peptide fusion (GPS, HEK-293T) (PSI 1-6); higher = more stable
Conditions: c terminus: a fixed tail appended
With QKEQGLSDNILSPVMNGMVQTWTQ the protein stability index was 2.58.
In the case of QKEQGLSDNILSPVMNGEVQTWTQ, the protein stability index is reported as 2.56.
QKEQGLSDNILSPVMNGNVQTWTQ showed a protein stability index of 2.67.
QKEQGLSDNILSPVMNGAVQTWTQ gave a protein stability index of 3.46.
Work on QKEQGLSDNILSPVMNGGVQPWTQ yielded a protein stability index of 3.74.
In the case of QKEQGLSDNILSPVMNGGVQAWTQ, the protein stability index is reported as 3.61.
Work on QKEQGLSDNILSPVMNGGVQWWTQ yielded a protein stability index of 2.82.
With QKEQGLSDNILSPVMNGGVQCWTQ the protein stability index was 2.66.
Variant QKEQGLSDNILSPVMNGGVQNWTQ has a protein stability index of 3.65.
In the case of QKEQGLSDNILSPVMNGGVQLWTQ, the protein stability index is reported as 2.68.
Work on QKEQGLSDNILSPVMNGGVQQWTQ yielded a protein stability index of 3.55.
Variant QKEQGLSDNILSPVMNGGVQKWTQ has a protein stability index of 3.46.
For QKEQGLSDNILSPVMNGGVQMWTQ, the protein stability index was 3.63.
QKEQGLSDNILSPVMNGGVQFWTQ gave a protein stability index of 2.75.
Work on QKEQGLSDNILSPVMNGGVQRWTQ yielded a protein stability index of 3.23.
In the case of QKEQGLSDNILSPVMNGGVQEWTQ, the protein stability index is reported as 3.71.
QKEQGLSDNILSPVMNGGVQDWTQ gave a protein stability index of 4.85.

Variants of: B2
Experiment: as above
Conditions: c terminus: a fixed tail appended
In the case of EADYHDDSKIAFLMQLQDIQYLTE, the protein stability index is reported as 2.62.
EADYDDDSKIAFLMQLQDIQYLTE showed a protein stability index of 3.42.
EADYYDDSKIAFLMQLQDIQYLTE gave a protein stability index of 2.27.
Variant EADYEADSKIAFLMQLQDIQYLTE has a protein stability index of 2.21.
With EADYEPDSKIAFLMQLQDIQYLTE the protein stability index was 2.34.
In the case of EADYEDDSPIAFLMQLQDIQYLTE, the protein stability index is reported as 2.9.
EADYEDDSNIAFLMQLQDIQYLTE gave a protein stability index of 3.08.
EADYEDDSIIAFLMQLQDIQYLTE gave a protein stability index of 1.83.
With EADMEDDSKIAFLMQLQDIQYLTE the protein stability index was 3.07.
With EADEEDDSKIAFLMQLQDIQYLTE the protein stability index was 4.09.
Variant EADDEDDSKIAFLMQLQDIQYLTE has a protein stability index of 4.24.
EADSEDDSKIAFLMQLQDIQYLTE showed a protein stability index of 3.65.
Work on EADYEDDSKIADLMQLQDIQYLTE yielded a protein stability index of 5.07.
For EADYEDDSKIAFLMQLQSIQYLTE, the protein stability index was 2.24.
Work on EADYEDDSKIAFLMQLQPIQYLTE yielded a protein stability index of 2.83.
Variant EADYEDDSKIAFLMQLQYIQYLTE has a protein stability index of 1.54.
EADYEDDSKIAFLMQLQIIQYLTE gave a protein stability index of 1.39.
EADYEDDGKIAFLMQLQDIQYLTE showed a protein stability index of 3.46.
EADYEDDWKIAFLMQLQDIQYLTE showed a protein stability index of 2.29.
Work on EADYEDDVKIAFLMQLQDIQYLTE yielded a protein stability index of 2.6.
Variant EADYEDDLKIAFLMQLQDIQYLTE has a protein stability index of 2.25.
For EADYEDDSKICFLMQLQDIQYLTE, the protein stability index was 2.54.
EADYEDDSKIMFLMQLQDIQYLTE showed a protein stability index of 2.66.
EADYEDDSKIHFLMQLQDIQYLTE gave a protein stability index of 2.97.
Variant EADYEDDSKIFFLMQLQDIQYLTE has a protein stability index of 2.38.
Work on EADYEDDSKIWFLMQLQDIQYLTE yielded a protein stability index of 2.78.
Variant EADYEDDSKIRFLMQLQDIQYLTE has a protein stability index of 2.83.
In the case of EADYEDDSKIAFLMQLQDIAYLTE, the protein stability index is reported as 2.5.
In the case of EADYEDDSKIAFLMQLQDICYLTE, the protein stability index is reported as 2.2.
In the case of EADYEDDSKIAFLMQLQDIQKLTE, the protein stability index is reported as 3.51.
For EADYEDDSKIAFLMQLQDIQDLTE, the protein stability index was 4.45.
EADYEDDSKIAFLMQLQDIQELTE showed a protein stability index of 4.21.
EADYEDDSKIAFLMQLQDIQCLTE showed a protein stability index of 3.74.
With EADYEDDSKIAFLMQLQDIQALTE the protein stability index was 3.81.
Variant EADYEDDSKIAFLMQLQDIQILTE has a protein stability index of 3.19.
In the case of EADYEDDSKIAFLMQLQDIQMLTE, the protein stability index is reported as 3.45.
Variant EADYEDDSKIAFLMQLQDIQPLTE has a protein stability index of 3.77.
For EADYEDDSKIAFLMQLQDIQWLTE, the protein stability index was 2.95.
Variant EEDYEDDSKIAFLMQLQDIQYLTE has a protein stability index of 3.63.
In the case of EMDYEDDSKIAFLMQLQDIQYLTE, the protein stability index is reported as 2.44.
ENDYEDDSKIAFLMQLQDIQYLTE gave a protein stability index of 3.41.
EQDYEDDSKIAFLMQLQDIQYLTE showed a protein stability index of 2.36.
EADYEDDSKIAFLMQKQDIQYLTE showed a protein stability index of 4.53.
Variant EADYEDDSKIAFLMQMQDIQYLTE has a protein stability index of 3.55.
Variant EADYEDDSKIAFLMQCQDIQYLTE has a protein stability index of 4.06.
Variant EADYEDDSKIAFLMQVQDIQYLTE has a protein stability index of 3.71.
Variant EADYEDDSKIAFLMPLQDIQYLTE has a protein stability index of 3.39.
For EADYEDDSKIAFLMMLQDIQYLTE, the protein stability index was 2.36.
With EADYEDDSKIAFLMWLQDIQYLTE the protein stability index was 1.78.
EADYEDDSKIAFLMGLQDIQYLTE gave a protein stability index of 3.76.
For EADYEDDSKIAFLMCLQDIQYLTE, the protein stability index was 2.09.
Work on EADYEDDSKIAFLMKLQDIQYLTE yielded a protein stability index of 2.9.
In the case of EADYEDDSKIAFLMQLQDIQYLTH, the protein stability index is reported as 2.48.
EADYEDDSKIAFLMQLQDTQYLTE showed a protein stability index of 4.15.
Work on EADYEDDSKIAFLMQLQDPQYLTE yielded a protein stability index of 4.18.
In the case of EASYEDDSKIAFLMQLQDIQYLTE, the protein stability index is reported as 2.51.
Variant TADYEDDSKIAFLMQLQDIQYLTE has a protein stability index of 2.47.
QADYEDDSKIAFLMQLQDIQYLTE showed a protein stability index of 2.76.
SADYEDDSKIAFLMQLQDIQYLTE gave a protein stability index of 2.65.
NADYEDDSKIAFLMQLQDIQYLTE gave a protein stability index of 2.85.
Variant EADYEDDSKIAFLMQLQDIQYLHE has a protein stability index of 3.29.
With EADYEDDSKIAFLMQLQDIQYLPE the protein stability index was 4.17.
For EADYEDDSKIAFDMQLQDIQYLTE, the protein stability index was 4.68.
EADYEDESKIAFLMQLQDIQYLTE showed a protein stability index of 3.14.
EADYEDCSKIAFLMQLQDIQYLTE gave a protein stability index of 1.88.
Work on EADYEDDSKRAFLMQLQDIQYLTE yielded a protein stability index of 3.82.
Variant EADYEDDSKDAFLMQLQDIQYLTE has a protein stability index of 4.35.
EADYEDDSKIAFLMQLCDIQYLTE showed a protein stability index of 2.25.
With EADYEDDSKIAFLMQLHDIQYLTE the protein stability index was 3.13.
With EADYEDDSKIAFLMQLVDIQYLTE the protein stability index was 2.67.
Work on EADYEDDSKIAFLMQLQDIQYDTE yielded a protein stability index of 4.97.
Work on EADYEDDSKIAFLMQLQDIQYKTE yielded a protein stability index of 3.79.
In the case of EADYEDDSKIAFLMQLQDIQYGTE, the protein stability index is reported as 4.5.
In the case of EADYEDDSKIAFLMQLQDIQYETE, the protein stability index is reported as 4.7.
In the case of EADYEDDSKIAFLDQLQDIQYLTE, the protein stability index is reported as 4.27.
For EADYEDDSKIAFLLQLQDIQYLTE, the protein stability index was 2.32.
EADYEDDSKIAFLPQLQDIQYLTE showed a protein stability index of 4.46.
